Reference: article PMC8141524, “The uncharacterized SANT and BTB domain-containing protein SANBR inhibits class switch recombination” (The Journal of Biological Chemistry, 2021)

Assays:
[1] = target: T1, GST-tagged mouse HDAC1 (mouse, UniProt O09106 1-482); test: pull-down; 200 nM His6-tagged BTB domain with equimolar GST-tagged protein, 50 mM HEPES pH 8.0, 150 mM NaCl, 0.1% IGEPAL-CA630, 2 mM EDTA, 4 °C; glutathione sepharose 4B; immunoblot anti-His; settings: both partners purified
T1 construct: histone deacetylase 1 (HDAC1), mouse; also called GST-HDAC1; source: E. coli BL21DE3(RIPL), purified (glutathione sepharose 4B, SEC)
T1 sequence (O09106 whole entry, the tested form may be a part): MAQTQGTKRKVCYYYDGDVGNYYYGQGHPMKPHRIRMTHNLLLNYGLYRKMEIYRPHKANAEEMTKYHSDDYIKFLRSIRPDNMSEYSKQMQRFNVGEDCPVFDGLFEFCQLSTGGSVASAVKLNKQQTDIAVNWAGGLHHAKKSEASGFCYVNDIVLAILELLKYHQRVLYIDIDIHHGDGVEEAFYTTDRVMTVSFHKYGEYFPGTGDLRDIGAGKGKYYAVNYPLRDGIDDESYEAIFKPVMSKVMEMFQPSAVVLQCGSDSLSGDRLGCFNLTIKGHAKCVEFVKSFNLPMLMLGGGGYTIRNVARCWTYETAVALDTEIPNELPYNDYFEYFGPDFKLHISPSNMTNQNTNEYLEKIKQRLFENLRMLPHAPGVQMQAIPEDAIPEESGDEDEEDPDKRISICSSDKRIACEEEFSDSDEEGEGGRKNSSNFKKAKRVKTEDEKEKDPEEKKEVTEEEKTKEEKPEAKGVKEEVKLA

[2] = target: the molecule itself; test: SEC; purified His6-SANBR(BTB) on a Superdex-200 10/30 column, compared with molecular weight standards; SEC buffer 10 mM HEPES pH 8.0, 0.3 M NaCl, 10% glycerol, 1 mM TCEP

- binding result [1]: binds
B1: His6-SANBR(BTB), the predicted BTB domain of SANBR (amino acids 144-261) (domain or fragment, mouse, UniProt Q68FF0-1 144-261, looked up)
chain: GPNMVIHVCDEAKSLKEDFICPRDLLISEMKYFAEYLSMDAQRWEEVDISVHCDVHIFNWLIKYVKRNTKESKDCEIPALEPGNVISILISSEFLKMDSLVEQCIQYCHKNMNAIVAA
notes: SANBR (KIAA1841), mouse, residues 144-261 containing the BTB domain (predicted BTB domain 147-255); full-length protein has 718 amino acids; cDNA cloned from stimulated mouse splenic B cells; predicted size of the tagged fragment 15 kD; also called His6-tagged SANBR(BTB); KIAA1841 BTB domain; source: E. coli BL21DE3(RIPL), purified (HisTrap FF, SEC); not shown: His6, N-terminal, kept
- stoichiometry N [2]: 2
